From publication doi:10.1101/2024.06.03.596960 (bioRxiv, 2024)

These molecules were tested against biotinylated ^AviSKP1-FBXO22(12-403) (UniProt P63208) (assay: AlphaScreen or HTRF).
biotinylated ^AviSKP1-FBXO22(12-403), sequence (P63208 2-163, chain 1 of 2): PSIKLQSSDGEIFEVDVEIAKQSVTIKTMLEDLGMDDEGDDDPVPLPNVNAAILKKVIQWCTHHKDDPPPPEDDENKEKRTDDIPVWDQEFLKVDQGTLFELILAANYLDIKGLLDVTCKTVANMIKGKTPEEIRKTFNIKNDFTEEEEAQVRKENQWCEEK
biotinylated ^AviSKP1-FBXO22(12-403), sequence (Q8NEZ5 12-403, chain 2 of 2, further chain): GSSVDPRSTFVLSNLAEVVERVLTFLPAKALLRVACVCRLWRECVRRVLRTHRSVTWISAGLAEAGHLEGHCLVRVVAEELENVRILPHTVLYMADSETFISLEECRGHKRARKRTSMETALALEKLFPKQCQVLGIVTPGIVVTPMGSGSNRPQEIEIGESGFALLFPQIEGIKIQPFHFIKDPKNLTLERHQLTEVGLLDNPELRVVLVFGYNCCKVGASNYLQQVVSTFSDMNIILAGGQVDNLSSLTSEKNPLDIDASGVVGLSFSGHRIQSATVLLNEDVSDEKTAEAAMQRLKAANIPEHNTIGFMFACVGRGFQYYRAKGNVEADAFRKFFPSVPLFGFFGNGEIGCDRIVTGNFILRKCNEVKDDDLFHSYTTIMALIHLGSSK

KEAP1 BTB domain (residues 48-180), sequence (Q14145 48-180): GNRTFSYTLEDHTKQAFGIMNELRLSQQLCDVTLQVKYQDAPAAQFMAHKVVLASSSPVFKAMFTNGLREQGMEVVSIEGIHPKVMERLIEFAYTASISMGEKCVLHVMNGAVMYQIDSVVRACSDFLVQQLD
BACH2 BTB domain (residues 8-131), sequence (Q9BYV9 8-131): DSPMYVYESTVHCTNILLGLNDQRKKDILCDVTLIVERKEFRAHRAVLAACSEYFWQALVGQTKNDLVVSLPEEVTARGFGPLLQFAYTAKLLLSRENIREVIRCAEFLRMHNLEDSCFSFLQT

Molecule | IC50
BACH2 BTB domain (residues 8-131) (from UniProt Q9BYV9 8-131) (domain or fragment) | 85 nM
BACH1^BTB Y11F (from UniProt O14867 7-128) (domain or fragment) | 140 nM
BACH1^BTB S13D (from UniProt O14867 7-128) (domain or fragment) | 2460 nM
BACH1 BTB domain (residues 7-128), wild type, tag-free (from UniProt O14867 7-128) (domain or fragment) | 64 nM
KEAP1 BTB domain (residues 48-180) (from UniProt Q14145 48-180) (domain or fragment) | 150 nM
BACH1^BTB F9A (from UniProt O14867 7-128) (domain or fragment) | 320 nM
BACH1^BTB F125A (from UniProt O14867 7-128) (domain or fragment) | 7460 nM
BACH1^BTB S13A (from UniProt O14867 7-128) (domain or fragment) | 183 nM
BACH1^BTB Y11A (from UniProt O14867 7-128) (domain or fragment) | 2660 nM
BACH1^BTB E12R (from UniProt O14867 7-128) (domain or fragment) | 149 nM
BACH1^BTB F125Y (from UniProt O14867 7-128) (domain or fragment) | 656 nM

These molecules were tested against His10-TEV-BACH1^BTB (UniProt O14867) (assay: AlphaScreen or HTRF).

Molecule | IC50
SKP1-FBXO22(R367L) (cancer-associated, TCGA) (from UniProt P63208 2-163; Q8NEZ5 12-403) (complex) | 1040 nM
SKP1-FBXO22(R367W) (cancer-associated, TCGA) (from UniProt P63208 2-163; Q8NEZ5 12-403) (complex) | 1480 nM
SKP1-FBXO22(R376D) (from UniProt P63208 2-163; Q8NEZ5 12-403) (complex) | 900 nM
SKP1-FBXO22(R376P) (from UniProt P63208 2-163; Q8NEZ5 12-403) (complex) | 1350 nM
SKP1-FBXO22(Q307E) (cancer-associated, TCGA) (from UniProt P63208 2-163; Q8NEZ5 12-403) (complex) | 575 nM
SKP1-FBXO22(Q307R) (cancer-associated, TCGA) (from UniProt P63208 2-163; Q8NEZ5 12-403) (complex) | 165 nM

Molecular target: biotinylated ^AviSKP1-FBXO22(12-403) (UniProt P63208)
Test: AlphaScreen or HTRF
Remark: another data set of the same source

Molecule | IC50
ZBTB16 BTB domain (residues 1-130) (domain or fragment) MDLTKMGMIQLQNPSHPTGLLCKANQMRLAGTLCDVVIMVDSQEFHAHRTVLACTSKMFEILFHRNSQHYTLDFLSPKTFQQILEYAYTATLQAKAEDLDDLLYAAEILEIEYLEEQCLKMLETIQASDD | 622 nM
